The values that follow come from article doi:10.1101/836718, “A unique conformational escape reaction of HIV-1 against an allosteric integrase inhibitor” (bioRxiv, 2019).

Data set [1] deals with the molecule itself. Description: SEC; HPLC, TSKgel-SWXLG3000 column; INHis at 50 µM; running buffer 20 mM HEPES pH 7.4, 750 mM NaCl, 3.75 mM CHAPS; 4°C as possible; self-association (tetramer, dimer, monomer). A general note: In gel filtration, larger molecules generally elute earlier.
Data set [2] deals with T1, His-tagged lens epithelium-derived growth factor p75 (LEDGF/p75) (human (sequence derived from 293T cells), UniProt O75475 1-530).
T1 construct: also called LEDGFHis; LEDGF/p75His; source: E. coli Rosetta (DE3) pLysS, purified (His-TALON column); not shown: His6, N-terminal, kept
Description: pull-down; F-IN (2 µM) and LEDGF/p75His (2 µM) 30 min at RT in 50 mM HEPES pH 7.0, 300 mM NaCl, 2 mM MgCl2, 2 mM BME, 5% glycerol, 0.2% NP-40, 20 mM imidazole; His 60 Ni resin; wash with 1 M NaCl; Coomassie staining. The note with it: both partners purified.

T1 sequence (O75475 whole entry): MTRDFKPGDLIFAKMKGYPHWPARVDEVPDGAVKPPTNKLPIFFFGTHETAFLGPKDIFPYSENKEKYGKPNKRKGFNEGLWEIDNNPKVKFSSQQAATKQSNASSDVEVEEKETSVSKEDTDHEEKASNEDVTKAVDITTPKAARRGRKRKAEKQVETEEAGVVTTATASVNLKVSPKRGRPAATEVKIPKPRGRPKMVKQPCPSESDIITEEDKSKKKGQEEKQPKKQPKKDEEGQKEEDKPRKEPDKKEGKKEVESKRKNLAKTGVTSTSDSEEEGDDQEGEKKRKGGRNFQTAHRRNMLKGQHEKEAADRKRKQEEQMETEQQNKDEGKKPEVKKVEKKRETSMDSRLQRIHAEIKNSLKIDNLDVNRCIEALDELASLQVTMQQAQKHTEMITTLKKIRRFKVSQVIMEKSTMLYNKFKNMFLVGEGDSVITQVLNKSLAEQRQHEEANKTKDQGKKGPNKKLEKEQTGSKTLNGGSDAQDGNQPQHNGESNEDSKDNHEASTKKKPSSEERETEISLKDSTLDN

B1: recombinant His-tagged HIV-1 integrase, wild type (IN^WT) (enzyme)
chain: FLDGIDKAQEEHEKYHSNWRAMASDFNLPPVVAKEIVASCDKCQLKGEAMHGQVDCSPGIWQLDCTHLEGKVILVAVHVASGYIEAEVIPAETGQETAYFLLKLAGRWPVKTVHTDNGSNFTSTTVKAACWWAGIKQEFGIPYNPQSQGVIESMNKELKKIIGQVRDQAEHLKTAVQMAVFIHNFKRKGGIGGYSAGERIVDIIATDIQTKELQKQITKIQNFRVYYRDSRDPVWKGPAKLLWKGEGAVVIQDNSDIKVVPRRKAKIIRDYGKQMAGDDCVASRQDED
notes: pET30a IN-6xHis; also called INHis; IN-6xHis; source: E. coli Rosetta (DE3) pLysS, purified (His-TALON column); not shown: His6, C-terminal, kept
Regarding B1, in data set [1], the “stoichiometry N” value amounted to 2.

B2: Flag-tagged HIV-1 integrase, wild type (F-IN^WT) (enzyme)
chain: FLDGIDKAQEEHEKYHSNWRAMASDFNLPPVVAKEIVASCDKCQLKGEAMHGQVDCSPGIWQLDCTHLEGKVILVAVHVASGYIEAEVIPAETGQETAYFLLKLAGRWPVKTVHTDNGSNFTSTTVKAACWWAGIKQEFGIPYNPQSQGVIESMNKELKKIIGQVRDQAEHLKTAVQMAVFIHNFKRKGGIGGYSAGERIVDIIATDIQTKELQKQITKIQNFRVYYRDSRDPVWKGPAKLLWKGEGAVVIQDNSDIKVVPRRKAKIIRDYGKQMAGDDCVASRQDED
notes: pET30a Flag-IN; also called Flag-IN; source: E. coli Rosetta (DE3) pLysS, purified (by previous reports, Kessl et al., 2012); not shown: FLAG, N-terminal, kept
For B2, the binding result in data set [2] was “binds”.

For orientation: stoichiometry N means a count of units in the complex or per binding partner.
